assay: yeast display, Sf9 membrane polyspecificity reagent, FACS + sequencing; frameworks hold sequencing errors
In short: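 In a synthetic yeast display library (Saccharomyces cerevisiae BJ5465), nanobody expression was induced with galactose for 36–48 hours. FACS gates were set low and high (top ~1%) using anti-HA fluorescence for expression and streptavidin fluorescence for binding of the Sf9 membrane reagent. Each polyreactivity label is drawn from the gate of origin.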

| Sequence | polyreactivity (PSR sort gate) |
| --- | --- |
| QVQLVESGGGLVQAGGSLRLSCAASGIIFRWYAMGWYRQAPGKERELLAAITSSGGRTYYADSVKGRFTISRDNAKNTVYFQMNSLKPEDSAVYYCAASYYIVGWDPYDYWGQGTQVTVSS | high polyreactivity |
| QVQLVESGGGLVQAGGSLRLSCAASGIIFRWYTKGWSRPAPGKERELVAAINYSSGDTYADSEKGRFTISRDNAKNTVYLQMNILKPEDTAVYYCAAEDPEYATYWYKYGYWGQGTQVNVSS | low polyreactivity |
| QVQLVESGGGLVQAGGSLRLSCAASGIIFRYAMGWYRQAPGKERELVAAIRKSDGSTYYADSVKGRFTISRDNAKNTVYLQMNSLKPEDTAVYYCNAVTVGLYDYWGQGTQVTVSS | high polyreactivity |
| QVQLVESGGGLVQAGGSLRLSCAASGIIFRYAMGWYRQSPGKERELVARITVGSTYYADSVKGRFTISRDNAKNTVYLQMNSLKPEDTAVYYCNKDSGEDDRWPYDYWGQGTQVTVSS | low polyreactivity |
| QVQLVESGGGLVQAGGSLRLSCAASGIIFRYYAMGWYRQAPGKERELVAAISRSGARTYYADTVKGRFTISRDNAKNTVFLQRNSLKPEDTAVYYCATDPTSGRFYYWGQGTQVTVSS | high polyreactivity |
| QVQLVESGGGLVQAGGSLRLSCAASGIIFRYYTMGWYRQAPGKERELVAAISWGGGSTYYADSVKGRFTISRDYAKNTVYLQMNSLKPEDTAVYYCAAEGLTYYNYREWLYYYWGQGTQVTVSS | high polyreactivity |
| QVQLVESGGGLVQAGGSLRLSCAASGIIFSEYAMGWNRKAPGKERELVAAISKSGGRTYYADSVKGRFTISRDNAKNTVYLQMNSLKPEDTAVYYCAARHAPILGDHGMKYWGQGTQVTVSS | high polyreactivity |
| QVQLVESGGGLVQAGGSLRLSCAASGIIFSEYAMGWYRQAPGKERELVAAISKSGGRTYYADSVKGRFTISRDNAKNTVYLQMNSLKPEDTAVYYCAARHAPILGDHGDYDYWGQGTQVTVSS | high polyreactivity |
| QVQLVESGGGLVQAGGSLRLSCAASGIIFSFYAMGWYRQAPGKERELVADITLSGGRTYYADSVKGRFTISRDNAKNTVYLQMNSLKPEDTAVYYCNADTYERGDYWGQGTQVTVSS | high polyreactivity |
| QVQLVESGGGLVQAGGSLRLSCAASGIIFSGNAMGWYRQAPGKERELVAAITRGGRTYYADSVKGRFTISRDNAKNTVFFQFNSLKPEDTAVYYCGAGYPYSYREYYYWGQGSQVTVSS | high polyreactivity |
| QVQLVESGGGLVQAGGSLRLSCAASGIIFSGNAMGWYRQAPGKERELVAAITRGGRTYYADSVKGRFTISRDNAKNTVYLQMNSLKPEDTAVYYCAAGYPYSYRDYYYWGQGTQVTVSS | high polyreactivity |
| QVQLVESGGGLVQAGGSLRLSCAASGIIFSGYAMGWYRQAPGKERELVAVISSSGGGTYYADSVKGRFTISRDKAKNTVYLQMNSLIPEDTAVYYCAARGREAIHGYWGQGTQVTLSS | high polyreactivity |
| QVQLVESGGGLVQAGGSLRLSCAASGIIFSGYVMGWYRQAPGKERELVAAIRWNGGNTYYADSVKGRFTISRDNAKNTVYLQMNSLKPEDTAVYYCAGRVRRPYSSLDYWGQGSQVTVSS | high polyreactivity |
| QVQLVESGGGLVQAGGSLRLSCAASGIIFSIYVMGWYRQAPGKERELVAAISSNGGSTYYADSVKGRFTISRDNAKNTVYLQMNSLKPEDTAVYYCAAVSRSHYYYWGQGTQVTVSS | high polyreactivity |
| QVQLVESGGGLVQAGGSLRLSCAASGIIFSKYAMGWYRQAPGKERELVARISWRGGDTYYADSVKGRFTISRDNAKNTVYLQMNSLKPEDTAVYYCNARIWGRYFSYTRFDYWGQGTQVTVSS | high polyreactivity |
| QVQLVESGGGLVQAGGSLRLSCAASGIIFSLKTMGGYRQAPGKERELVAAISSSGGSTYYADSVKGRFTISRDNAKNCVYVQMNSLKPEDTAVYYCARRYAPNTSLTFYYWGQGTQVTVSS | low polyreactivity |

| Sequence | polyreactivity (PSR sort gate) |
| --- | --- |
| QVQLVESGGGLVQAGGSLRLSCAASGIIFSPYAMGWYRQAPGKERELVAAINFSTGRTYYADSVKGRFTISRDNAKNTVYLQMNSLKPEDTAVYYCAAGKYPYVFRGGYDYWGQGTQVTVSS | low polyreactivity |
| QVQLVESGGGLVQAGGSLRLSCAASGIIFSQYAMGWYRQAPGKERELVAGITRSGGSTYYADSVKGRFSISRDNAKNTVYLQMNSLKPDDTAVYYCAAVQRYEYGYWGQGTQVTVSS | high polyreactivity |
| QVQLVESGGGLVQAGGSLRLSCAASGIIFSRYAMGWYRPAPGKVRELVASITGRVGSTYYADSVKGPFTISRDNAKNTVYLQMNRLNPEDTAVYYCAADYVYKFDYWGHGTQVTVSS | low polyreactivity |
| QVQLVESGGGLVQAGGSLRLSCAASGIIFSSYAMGWYRQAPGKERELVAAIDWRGDSTYYADSVKGRFTISRDNAKNTVYLQMNSLKPEDTAVYYCAADGSTYDSVRYGYWGQGTQVTVSS | low polyreactivity |
| QVQLVESGGGLVQAGGSLRLSCAASGIIFSSYAMGWYRQAPGKERELVAAITSGGNTNYADSVKGRFTISRDNAKNTVYLQMNSLKTEDISVYYCNADTSFVWLAWHQYGFGYWGQGTQVTLSS | low polyreactivity |
| QVQLVESGGGLVQAGGSLRLSCAASGIIFSSYAMGWYRQAPGKERELVAAITYNGGRTYYADSVKGRFTISRDNAKNTVYLQMNSVKPEDTAVYYCAAERYPYGVTYSKLDYWGQGTQVTVSS | high polyreactivity |
| QVQLVESGGGLVQAGGSLRLSCAASGIIFSVNAMGWYRQAPGTERELVAAISSSGGDTYYADSVKGRFTISRDNAKNTVYLQMNSLKPEDTAVYYCAASVEQPGLAYDYWGQGTQVTVSS | low polyreactivity |
| QVQLVESGGGLVQAGGSLRLSCAASGIIFSYNAMGWYRQAPGKERELVAAITSGGITNYADSVKGRFTISRDNAKNTVYLQMNSLKPEDTAVYYCAAEVWRYYRRDYWGQGTQVTVSS | low polyreactivity |
| QVQLVESGGGLVQAGGSLRLSCAASGIIFSYYDMGWYRQAPGKERELVATITGNGGSTYYADSVKGRFTISRDNAKNTVYLQMNSLKPEDTAVYYCAAQTTVYIYDYWGQGTQVTVSS | low polyreactivity |
| QVQLVESGGGLVQAGGSLRLSCAASGIIFTDNAMGWYRQAPGKERELVATISWSTDNTYYADSVKGRFTISRDNAKNTVYLQMNSLKPEDTAVYYCAAEEYYAYWYQYDYWGQGTQVTVSS | low polyreactivity |
| QVQLVESGGGLVQAGGSLRLSCAASGIIFTDYAMGWYRQAPGKERELVAAISSGGGSTYYADSVKGRFTNSRDYAKNTVYLQMNSLKPEDTAVYYCAAQTSGSYGFDHWGQGTQVTVSS | high polyreactivity |
| QVQLVESGGGLVQAGGSLRLSCAASGIIFTHNAMGWYRQAPGKERELVAAISWSGGSTYYADSVKGRFTISRDNAKNTVYLQMNSLKPEDTAVYYCNAKFKQSYAQVAKFNSWGQGTQVTVSS | low polyreactivity |
| QVQLVESGGGLVQAGGSLRLSCAASGIIFTLYAMGWYRQAPGKERELVATISTGGGTYYADSVKGRFTISRDNAKNTVYLQMNSLKPEDTAVYYCAAKRYWNFRYDYWGQGTQVTVSS | high polyreactivity |
| QVQLVESGGGLVQAGGSLRLSCAASGIIFTLYATGWYRQAPGKERELVAAISGSGGSTYYADSVKGRFTISRDNAKNTVYLQMNSLKPEDTAVYYCAARGVRGTGLDSRMYYWGQGTQVTVSS | high polyreactivity |
| QVQLVESGGGLVQAGGSLRLSCAASGIIFTQNGMGVYRPAPGKERELVAAISWSAGGTYYADSVKGRFTISRDNAKNTVYLQMNSLIPEDTAVYYCNARVYNVFREFNSWGQGTQVTVSS | low polyreactivity |
| QVQLVESGGGLVQAGGSLRLSCAASGIIFTSNTMGWYRQAPGKVREFVASINWNGSSTYADSVKGRFTISRDNAKYTVYLQMNSLKPEDTAVYSCNADYNRNSVQFSLYDYWGQGTQVTVSS | low polyreactivity |

— the nanobody polyreactivity screen of Harvey et al. (2022)
